In the assay the target is His6-human talin (human) (UniProt Q9Y490). In words: pull-down.

B1: His6-vinculin head (Vh), vinculin D1 domain (amino acid residues 1–258) (domain or fragment)
chain: MPVFHTRTIESILEPVAQQISHLVIMHEEGEVDGKAIPDLTAPVSAVQAAVSNLVRVGKETVQTTEDQILKRDMPPAFIKVENACTKLVRAAQMLQADPYSVPARDYLIDGSRGILSGTSDLLLTFDEAEVRKIIRVCKGILEYLTVAEVVETMEDLVTYTKNLGPGMTKMAKMIDERQQELTHQEHRVMLVNSMNTVKELLPVLISAMKIFVTTKNTKSQGIEEALKNRNFTVEKMSAEINEIIRVLQLTSWDEDAW
B1 yielded a fold lower IC50 than that of the RIAM peptide of 100 fold.

These data come from paper PMC3639047.
